# Target: T1, FcγRIIIa extracellular domain, C-terminal His tag (human, UniProt P08637 17-208)
# T1 construct: extracellular domain; also called 3a
# Assay: SPR, binding activity relative to GpH7-A5/GpH7-B3/GpL16-k0 (=100)
# T1 sequence (P08637 other isoform, or with tags, fused parts or gaps): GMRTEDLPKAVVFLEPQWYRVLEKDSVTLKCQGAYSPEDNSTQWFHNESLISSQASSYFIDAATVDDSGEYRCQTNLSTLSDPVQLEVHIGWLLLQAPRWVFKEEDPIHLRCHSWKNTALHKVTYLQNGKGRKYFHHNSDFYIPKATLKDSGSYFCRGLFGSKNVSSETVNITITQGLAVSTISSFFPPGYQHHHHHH
row,Binder,He/Con 3a [%]
1,"GpH7-A5/GpH7-B3 variant H268_11K/GpL16-k0 (antibody, human IgG1, kappa, He Ab; copies: 1 + 1 + 2) heavy 1: not shown heavy 2: not shown light: DIVMTQSPLSLPVTPGEPASISCQASESLVHSNRNTYLHWYLQKPGQSPQLLIYKVSNRFSGVPDRFSGSGSGTDFTLKISRVEAEDVGVYYCSQNTHVPPTFGQGTKVEIERTVAAPSVFIFPPSDEQLKSGTASVVCLLNNFYPREAKVQWKVDNALQSGNSQESVTEQDSKDSTYSLSSTLTLSKADYEKHKVYACEVTHQGLSSPVTKSFNRGEC",81.6
2,"GpH7-A5/GpH7-B3 variant H268_20W/GpL16-k0 (antibody, human IgG1, kappa, He Ab; copies: 1 + 1 + 2) heavy 1: not shown heavy 2: not shown light: DIVMTQSPLSLPVTPGEPASISCQASESLVHSNRNTYLHWYLQKPGQSPQLLIYKVSNRFSGVPDRFSGSGSGTDFTLKISRVEAEDVGVYYCSQNTHVPPTFGQGTKVEIERTVAAPSVFIFPPSDEQLKSGTASVVCLLNNFYPREAKVQWKVDNALQSGNSQESVTEQDSKDSTYSLSSTLTLSKADYEKHKVYACEVTHQGLSSPVTKSFNRGEC",82
3,"GpH7-A5/GpH7-B3 variant K326_04F/GpL16-k0 (antibody, human IgG1, kappa, He Ab; copies: 1 + 1 + 2) heavy 1: not shown heavy 2: not shown light: DIVMTQSPLSLPVTPGEPASISCQASESLVHSNRNTYLHWYLQKPGQSPQLLIYKVSNRFSGVPDRFSGSGSGTDFTLKISRVEAEDVGVYYCSQNTHVPPTFGQGTKVEIERTVAAPSVFIFPPSDEQLKSGTASVVCLLNNFYPREAKVQWKVDNALQSGNSQESVTEQDSKDSTYSLSSTLTLSKADYEKHKVYACEVTHQGLSSPVTKSFNRGEC",114
4,"GpH7-A5/GpH7-B3 variant H268_18N/GpL16-k0 (antibody, human IgG1, kappa, He Ab; copies: 1 + 1 + 2) heavy 1: not shown heavy 2: not shown light: DIVMTQSPLSLPVTPGEPASISCQASESLVHSNRNTYLHWYLQKPGQSPQLLIYKVSNRFSGVPDRFSGSGSGTDFTLKISRVEAEDVGVYYCSQNTHVPPTFGQGTKVEIERTVAAPSVFIFPPSDEQLKSGTASVVCLLNNFYPREAKVQWKVDNALQSGNSQESVTEQDSKDSTYSLSSTLTLSKADYEKHKVYACEVTHQGLSSPVTKSFNRGEC",103
5,"GpH7-A5/GpH7-B3 variant K326_01G/GpL16-k0 (antibody, human IgG1, kappa, He Ab; copies: 1 + 1 + 2) heavy 1: not shown heavy 2: not shown light: DIVMTQSPLSLPVTPGEPASISCQASESLVHSNRNTYLHWYLQKPGQSPQLLIYKVSNRFSGVPDRFSGSGSGTDFTLKISRVEAEDVGVYYCSQNTHVPPTFGQGTKVEIERTVAAPSVFIFPPSDEQLKSGTASVVCLLNNFYPREAKVQWKVDNALQSGNSQESVTEQDSKDSTYSLSSTLTLSKADYEKHKVYACEVTHQGLSSPVTKSFNRGEC",114
6,"GpH7-A5/GpH7-B3 variant I332_14T/GpL16-k0 (antibody, human IgG1, kappa, He Ab; copies: 1 + 1 + 2) heavy 1: not shown heavy 2: not shown light: DIVMTQSPLSLPVTPGEPASISCQASESLVHSNRNTYLHWYLQKPGQSPQLLIYKVSNRFSGVPDRFSGSGSGTDFTLKISRVEAEDVGVYYCSQNTHVPPTFGQGTKVEIERTVAAPSVFIFPPSDEQLKSGTASVVCLLNNFYPREAKVQWKVDNALQSGNSQESVTEQDSKDSTYSLSSTLTLSKADYEKHKVYACEVTHQGLSSPVTKSFNRGEC",110
7,"GpH7-A5/GpH7-B3 variant K326_05P/GpL16-k0 (antibody, human IgG1, kappa, He Ab; copies: 1 + 1 + 2) heavy 1: not shown heavy 2: not shown light: DIVMTQSPLSLPVTPGEPASISCQASESLVHSNRNTYLHWYLQKPGQSPQLLIYKVSNRFSGVPDRFSGSGSGTDFTLKISRVEAEDVGVYYCSQNTHVPPTFGQGTKVEIERTVAAPSVFIFPPSDEQLKSGTASVVCLLNNFYPREAKVQWKVDNALQSGNSQESVTEQDSKDSTYSLSSTLTLSKADYEKHKVYACEVTHQGLSSPVTKSFNRGEC",117
8,"GpH7-A5/GpH7-B3 variant I332_06M/GpL16-k0 (antibody, human IgG1, kappa, He Ab; copies: 1 + 1 + 2) heavy 1: not shown heavy 2: not shown light: DIVMTQSPLSLPVTPGEPASISCQASESLVHSNRNTYLHWYLQKPGQSPQLLIYKVSNRFSGVPDRFSGSGSGTDFTLKISRVEAEDVGVYYCSQNTHVPPTFGQGTKVEIERTVAAPSVFIFPPSDEQLKSGTASVVCLLNNFYPREAKVQWKVDNALQSGNSQESVTEQDSKDSTYSLSSTLTLSKADYEKHKVYACEVTHQGLSSPVTKSFNRGEC",92.5
9,"GpH7-A5/GpH7-B3 variant I332_04F/GpL16-k0 (antibody, human IgG1, kappa, He Ab; copies: 1 + 1 + 2) heavy 1: not shown heavy 2: not shown light: DIVMTQSPLSLPVTPGEPASISCQASESLVHSNRNTYLHWYLQKPGQSPQLLIYKVSNRFSGVPDRFSGSGSGTDFTLKISRVEAEDVGVYYCSQNTHVPPTFGQGTKVEIERTVAAPSVFIFPPSDEQLKSGTASVVCLLNNFYPREAKVQWKVDNALQSGNSQESVTEQDSKDSTYSLSSTLTLSKADYEKHKVYACEVTHQGLSSPVTKSFNRGEC",89.3
10,"GpH7-A5/GpH7-B3 variant I332_13S/GpL16-k0 (antibody, human IgG1, kappa, He Ab; copies: 1 + 1 + 2) heavy 1: not shown heavy 2: not shown light: DIVMTQSPLSLPVTPGEPASISCQASESLVHSNRNTYLHWYLQKPGQSPQLLIYKVSNRFSGVPDRFSGSGSGTDFTLKISRVEAEDVGVYYCSQNTHVPPTFGQGTKVEIERTVAAPSVFIFPPSDEQLKSGTASVVCLLNNFYPREAKVQWKVDNALQSGNSQESVTEQDSKDSTYSLSSTLTLSKADYEKHKVYACEVTHQGLSSPVTKSFNRGEC",95.6
11,"GpH7-A5/GpH7-B3 variant I332_02A/GpL16-k0 (antibody, human IgG1, kappa, He Ab; copies: 1 + 1 + 2) heavy 1: not shown heavy 2: not shown light: DIVMTQSPLSLPVTPGEPASISCQASESLVHSNRNTYLHWYLQKPGQSPQLLIYKVSNRFSGVPDRFSGSGSGTDFTLKISRVEAEDVGVYYCSQNTHVPPTFGQGTKVEIERTVAAPSVFIFPPSDEQLKSGTASVVCLLNNFYPREAKVQWKVDNALQSGNSQESVTEQDSKDSTYSLSSTLTLSKADYEKHKVYACEVTHQGLSSPVTKSFNRGEC",103
12,"GpH7-A5/GpH7-B3 variant H268_12R/GpL16-k0 (antibody, human IgG1, kappa, He Ab; copies: 1 + 1 + 2) heavy 1: not shown heavy 2: not shown light: DIVMTQSPLSLPVTPGEPASISCQASESLVHSNRNTYLHWYLQKPGQSPQLLIYKVSNRFSGVPDRFSGSGSGTDFTLKISRVEAEDVGVYYCSQNTHVPPTFGQGTKVEIERTVAAPSVFIFPPSDEQLKSGTASVVCLLNNFYPREAKVQWKVDNALQSGNSQESVTEQDSKDSTYSLSSTLTLSKADYEKHKVYACEVTHQGLSSPVTKSFNRGEC",76
13,"GpH7-A5/GpH7-B3 variant I332_10E/GpL16-k0 (antibody, human IgG1, kappa, He Ab; copies: 1 + 1 + 2) heavy 1: not shown heavy 2: not shown light: DIVMTQSPLSLPVTPGEPASISCQASESLVHSNRNTYLHWYLQKPGQSPQLLIYKVSNRFSGVPDRFSGSGSGTDFTLKISRVEAEDVGVYYCSQNTHVPPTFGQGTKVEIERTVAAPSVFIFPPSDEQLKSGTASVVCLLNNFYPREAKVQWKVDNALQSGNSQESVTEQDSKDSTYSLSSTLTLSKADYEKHKVYACEVTHQGLSSPVTKSFNRGEC",213
14,"GpH7-A5/GpH7-B3 variant H268_14T/GpL16-k0 (antibody, human IgG1, kappa, He Ab; copies: 1 + 1 + 2) heavy 1: not shown heavy 2: not shown light: DIVMTQSPLSLPVTPGEPASISCQASESLVHSNRNTYLHWYLQKPGQSPQLLIYKVSNRFSGVPDRFSGSGSGTDFTLKISRVEAEDVGVYYCSQNTHVPPTFGQGTKVEIERTVAAPSVFIFPPSDEQLKSGTASVVCLLNNFYPREAKVQWKVDNALQSGNSQESVTEQDSKDSTYSLSSTLTLSKADYEKHKVYACEVTHQGLSSPVTKSFNRGEC",90.3
15,"GpH7-A5/GpH7-B3 variant H268_13S/GpL16-k0 (antibody, human IgG1, kappa, He Ab; copies: 1 + 1 + 2) heavy 1: not shown heavy 2: not shown light: DIVMTQSPLSLPVTPGEPASISCQASESLVHSNRNTYLHWYLQKPGQSPQLLIYKVSNRFSGVPDRFSGSGSGTDFTLKISRVEAEDVGVYYCSQNTHVPPTFGQGTKVEIERTVAAPSVFIFPPSDEQLKSGTASVVCLLNNFYPREAKVQWKVDNALQSGNSQESVTEQDSKDSTYSLSSTLTLSKADYEKHKVYACEVTHQGLSSPVTKSFNRGEC",121
16,"GpH7-A5/GpH7-B3 variant I332_19Q/GpL16-k0 (antibody, human IgG1, kappa, He Ab; copies: 1 + 1 + 2) heavy 1: not shown heavy 2: not shown light: DIVMTQSPLSLPVTPGEPASISCQASESLVHSNRNTYLHWYLQKPGQSPQLLIYKVSNRFSGVPDRFSGSGSGTDFTLKISRVEAEDVGVYYCSQNTHVPPTFGQGTKVEIERTVAAPSVFIFPPSDEQLKSGTASVVCLLNNFYPREAKVQWKVDNALQSGNSQESVTEQDSKDSTYSLSSTLTLSKADYEKHKVYACEVTHQGLSSPVTKSFNRGEC",101
17,"GpH7-A5/GpH7-B3 variant I332_16H/GpL16-k0 (antibody, human IgG1, kappa, He Ab; copies: 1 + 1 + 2) heavy 1: not shown heavy 2: not shown light: DIVMTQSPLSLPVTPGEPASISCQASESLVHSNRNTYLHWYLQKPGQSPQLLIYKVSNRFSGVPDRFSGSGSGTDFTLKISRVEAEDVGVYYCSQNTHVPPTFGQGTKVEIERTVAAPSVFIFPPSDEQLKSGTASVVCLLNNFYPREAKVQWKVDNALQSGNSQESVTEQDSKDSTYSLSSTLTLSKADYEKHKVYACEVTHQGLSSPVTKSFNRGEC",89
18,"GpH7-A5/GpH7-B3 variant K326_02A/GpL16-k0 (antibody, human IgG1, kappa, He Ab; copies: 1 + 1 + 2) heavy 1: not shown heavy 2: not shown light: DIVMTQSPLSLPVTPGEPASISCQASESLVHSNRNTYLHWYLQKPGQSPQLLIYKVSNRFSGVPDRFSGSGSGTDFTLKISRVEAEDVGVYYCSQNTHVPPTFGQGTKVEIERTVAAPSVFIFPPSDEQLKSGTASVVCLLNNFYPREAKVQWKVDNALQSGNSQESVTEQDSKDSTYSLSSTLTLSKADYEKHKVYACEVTHQGLSSPVTKSFNRGEC",130
19,"GpH7-A5/GpH7-B3 variant H268_15Y/GpL16-k0 (antibody, human IgG1, kappa, He Ab; copies: 1 + 1 + 2) heavy 1: not shown heavy 2: not shown light: DIVMTQSPLSLPVTPGEPASISCQASESLVHSNRNTYLHWYLQKPGQSPQLLIYKVSNRFSGVPDRFSGSGSGTDFTLKISRVEAEDVGVYYCSQNTHVPPTFGQGTKVEIERTVAAPSVFIFPPSDEQLKSGTASVVCLLNNFYPREAKVQWKVDNALQSGNSQESVTEQDSKDSTYSLSSTLTLSKADYEKHKVYACEVTHQGLSSPVTKSFNRGEC",96.5
20,"GpH7-A5/GpH7-B3 variant H268_19Q/GpL16-k0 (antibody, human IgG1, kappa, He Ab; copies: 1 + 1 + 2) heavy 1: not shown heavy 2: not shown light: DIVMTQSPLSLPVTPGEPASISCQASESLVHSNRNTYLHWYLQKPGQSPQLLIYKVSNRFSGVPDRFSGSGSGTDFTLKISRVEAEDVGVYYCSQNTHVPPTFGQGTKVEIERTVAAPSVFIFPPSDEQLKSGTASVVCLLNNFYPREAKVQWKVDNALQSGNSQESVTEQDSKDSTYSLSSTLTLSKADYEKHKVYACEVTHQGLSSPVTKSFNRGEC",113
21,"GpH7-A5/GpH7-B3 variant I332_03V/GpL16-k0 (antibody, human IgG1, kappa, He Ab; copies: 1 + 1 + 2) heavy 1: not shown heavy 2: not shown light: DIVMTQSPLSLPVTPGEPASISCQASESLVHSNRNTYLHWYLQKPGQSPQLLIYKVSNRFSGVPDRFSGSGSGTDFTLKISRVEAEDVGVYYCSQNTHVPPTFGQGTKVEIERTVAAPSVFIFPPSDEQLKSGTASVVCLLNNFYPREAKVQWKVDNALQSGNSQESVTEQDSKDSTYSLSSTLTLSKADYEKHKVYACEVTHQGLSSPVTKSFNRGEC",85.2
22,"GpH7-A5/GpH7-B3 variant K326_03V/GpL16-k0 (antibody, human IgG1, kappa, He Ab; copies: 1 + 1 + 2) heavy 1: not shown heavy 2: not shown light: DIVMTQSPLSLPVTPGEPASISCQASESLVHSNRNTYLHWYLQKPGQSPQLLIYKVSNRFSGVPDRFSGSGSGTDFTLKISRVEAEDVGVYYCSQNTHVPPTFGQGTKVEIERTVAAPSVFIFPPSDEQLKSGTASVVCLLNNFYPREAKVQWKVDNALQSGNSQESVTEQDSKDSTYSLSSTLTLSKADYEKHKVYACEVTHQGLSSPVTKSFNRGEC",135

# From US20260167699A1 (Chugai, published 2026)
